Here are results for 11 molecules from US20210106652A1, “Immunogenic Compounds For Treatment Of Fibrosis, Autoimmune Diseases And Inflammation” (ENTEROME S.A., priority 2018, published 2021).

For one test, the target named is T1, HLA-A*0201 (Homo sapiens, UniProt P04439, D140Y/D185E/D98H/E176V/E277Q/G131W/G231S/I119V/I121R/I166T/I218V/L300P/L318F/N151K/N90K/P208A/P217A/Q86G/Q94H/R138H/R169H/T345S).
T1 construct: human tumoral cell T2 which expresses the HLA-A*0201 molecule; endogenous in cells; host or cells: T2 cells (human, TAP1/2 negative)
As to the kind of experiment: Affinity of the peptide to HLA-A*0201 on T2 cell line (FACS, anti-HLA-A2). It is filed as binding. The following applies: for binding to HLA-A*0201 (in words): T2 cells; for Concentration of peptide that induces 20% of HLA-A2 expression: Example 7; for In vitro binding affinity: Example 5, relative affinity = concentration of peptide inducing 20% of HLA-A*0201 expression / that of reference peptide HIV pol 589-597, lower = higher affinity. An excerpt: The experimental protocol is similar to the one that was validated for peptides presented by the HLA-A*0201 (Tourdot et al., A general strategy to enhance immunogenicity of low-affinity HLA-A2.1-associated peptides: implication in the identification of cryptic tumor epitopes. Eur J Immunol. 2000 December; 30(12):3411-21). Affinity measurement of the peptides is achieved with the human tumoral cell T2 which expresses the HLA-A*0201 molecule, but which is TAP1/2 negative and incapable of presenting endogenous peptides.
T2 cells (2.10^5 cells per well) are incubated with decreasing concentrations of peptides from 100 μM to 0.1 μM in a AIMV medium supplemented with 100 ng/μl of human β2m at 37° C. for 16 hours. Cells are then washed two times and marked with the anti-HLA-A2 antibody coupled to PE (clone BB7.2, BD Pharmagen).
The analysis is achieved by FACS (Guava Easy Cyte).
For each peptide concentration, the geometric mean of the labelling associated with the peptide of interest is substracted from background noise and reported as a percentage of the geometric mean of the […] labelling obtained for the reference peptide HIV pol 589-597 at a concentration of 100 μM. The relative affinity is then determined as follows:
relative affinity=concentration of each peptide inducing 20% of expression of HLA-A*0201/concentration of the reference peptide inducing 20% of expression of HLA-A*0201.
The experimental protocol was similar to the one that was validated for peptides presented by the HLA-A*0201 (Tourdot et al., A general strategy to enhance immunogenicity of low-affinity HLA-A2.1-associated peptides: implication in the identification of cryptic tumor epitopes. Eur J Immunol. 2000 December; 30(12):3411-21).
T2 cells (2.10^5 cells per well) were incubated with decreasing concentrations of peptides from 100 μM to 0.1 μM in a AIMV medium supplemented with 100 ng/μl of human β2m at 37° C. for 16 hours. Cells were then washed two times and marked with the anti-HLA-A2 antibody coupled to PE (clone BB7.2, BD Pharmagen).
The analysis was achieved by FACS (Guava Easy Cyte).
For each peptide concentration, the geometric mean of the labelling associated with the peptide of interest was subtracted from background noise and reported as a percentage of the geometric mean of the […] labelling obtained for the reference peptide HIV pol 589-597 at a concentration of 100 μM. The relative affinity is then determined as follows:
The experimental protocol, materials and methods correspond to those outlined in Example 3, with the only difference that the above mentioned (poly)peptides were used.
The experimental protocol, materials and methods correspond to those outlined in Example 2, with the only difference that the above mentioned (poly)peptides were used.

The next test relates to HHD DR3 mice. As to the kind of experiment: IFN-γ ELISpot immunogenicity and cross-reactivity in HHD DR3 (HLA-A2 transgenic) mice. It is filed as in vivo, mouse. The conditions noted are these: 100 μg s.c. d0, d14 with helper peptide (DR3) and IFA; challenge with either IL13RA2-L or IL13RA2-H. As to the method:
The (poly)peptide of the present invention IL13RA2-L (SEQ ID NO: 279) and the corresponding human reference peptide IL13RA2-H (SEQ ID NO: 263) were tested in distinct groups of male and female HHD DR3 mice expressing human HLA-A2 and HLA-DR3 MHC and lacking the murine H-2 class I and class II MHCs. Groups of 5 mice (male and female) were subcutaneously injected on days 0 and 14 with 100 μg of IL13RA2-L (SEQ ID NO: 279) or IL13RA2-H (SEQ ID NO: 263), 150 μg of helper peptide (DR3) and IFA. On day 21, the mice were euthanized and splenocytes were prepared and stimulated in vitro with IL13RA2-L or the human corresponding peptide IL13RA2-H to assess their capacity to secrete IFN- as assessed by ELISpot. Concanavalin A (ConA) was used as a positive control.

Test [1] has as its target T2, HLA-A*0201 molecule expressed on human T2 cells (human).
T2 construct: MHC class I molecule on T2 cells; also called HLA-A2
As to the kind of experiment: T2 cell assay; relative affinity against reference peptide HIV pol 589-597.

YLYTFLIST [IL13RA2-B2]: the “binding to HLA-A*0201 (in words)” value with HLA-A*0201 was “bind strongly”.
As to FLPFGFILV [IL13RA2-B], in the test with HLA-A*0201, the “Concentration of peptide that induces 20% of HLA-A2 expression” value is 2.9 µM and the “binding to HLA-A*0201 (in words)” value is “bind strongly”.
For WLPFGFILI [IL13RA2-H], the “immune response (IFN-γ ELISpot, spot forming cells) after immunisation” value in the test on HHD DR3 mice is listed as “does not induce an immune response”. In the test with HLA-A*0201, the “binding to HLA-A*0201 (in words)” value was “do not bind to or show much lower affinity”.
Consider “1F9M: tryptophan at position 1 of SEQ ID No 263 substituted by phenylalanine and isoleucine at position 9 substituted by methionine (FLPFGFILM)”, for which the “In vitro binding affinity” value in the test with HLA-A*0201 turned out to be 2.62.
Take ALPFGFILV [1A9V]: in the test with HLA-A*0201, the “In vitro binding affinity” value was 3.06 and the “Concentration of peptide that induces 20% of HLA-A2 expression” value is 36.5 µM.
For “1I9A: tryptophan at position 1 of SEQ ID No 263 substituted by isoleucine and isoleucine at position 9 substituted by alanine (ILPFGFILA)”, the “In vitro binding affinity” value with HLA-A*0201 stood at 2.22.
In the case of FLPFGFILPV [IL13RA2-L], the “immune response (IFN-γ ELISpot, spot forming cells) after immunisation” value in the test with HHD DR3 mice was “strongly immunogenic”. Besides, in the test with HLA-A*0201, the “Concentration of peptide that induces 20% of HLA-A2 expression” value amounted to 3.2 µM.
CLYTFLIST [IL13RA2-H2]: the “binding to HLA-A*0201 (in words)” value in the test with HLA-A*0201 is on record as “do not bind to or show much lower affinity”.

B1: IL13RA2-B (FLPFGFILV, SEQ ID NO: 31) (peptide)
peptide: FLPFGFILV
notes: also called IL13RA2-B pAg; candidate peptide
Regarding B1, the “In vitro binding affinity” value in test [1] amounted to 0.3.

B2: peptide 1A9V (SEQ ID NO: 263 with tryptophan 1 to alanine and isoleucine 9 to valine) (peptide)
peptide: ALPFGFILV
notes: Analogue described by Eguchi et al. 2006; also called comparative peptide 1A9V
Turning to B2, the “In vitro binding affinity” value in test [1] turned out to be 3.6.
FLPFGFILPV (also called IL13R2A-L) [IL13RA2-L (SEQ ID NO: 279)]: the “In vitro binding affinity” value in test [1] was found to be 0.3.
